We go through 94 variants from the supplement of paper PMC10567573.

B1: NCK2 (parent)
chain: YTGPSSSGRFAGREWYYGNVTRHQ
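Also: lentivirally expressed fusions sorted by FACS into six bins by GFP to DsRed ratio, PSI derived from sequencing read proportions per bin multiplied by bin number.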

Variants of B1 are the subject of this series. In words: protein stability index of a GFP-peptide fusion (GPS, HEK-293T) (PSI 1-6); higher = more stable. Conditions: c terminus: a fixed tail appended.
Regarding YTGPSSQGRFAGREWYYGNVTRHQ, the protein stability index was determined as 2. For YTGPSSCGRFAGREWYYGNVTRHQ, the protein stability index is 3.63. The figure for YTGPSSLGRFAGREWYYGNVTRHQ is 2.11. The figure for YTGPSSVGRFAGREWYYGNVTRHQ is 1.46; for YTGPSSHGRFAGREWYYGNVTRHQ it is 1.85; for YTGPSSFGRFAGREWYYGNVTRHQ it is 1.59.

Consider YTGPSSRGRFAGREWYYGNVTRHQ, for which the protein stability index stood at 1.82. YTGPSSAGRFAGREWYYGNVTRHQ: the protein stability index came to 1.71. The figure for YTGPSSMGRFAGREWYYGNVTRHQ is 1.58; for YTGPSSYGRFAGREWYYGNVTRHQ it is 2.02; for YTGPSSEGRFAGREWYYGNVTRHQ it is 2.32. Under YTGPSSGGRFAGREWYYGNVTRHQ stands 1.82. The figure for YTGPSSKGRFAGREWYYGNVTRHQ is 2.08.

Turning to YTGPSSPGRFAGREWYYGNVTRHQ, the protein stability index was 2.18. The figure for YTGPSSNGRFAGREWYYGNVTRHQ is 1.47; for YTGPSSTGRFAGREWYYGNVTRHQ it is 2.68; for YTGPSSDGRFAGREWYYGNVTRHQ it is 1.59. Under YTGPSSSGCFAGREWYYGNVTRHQ stands 2.09. Under YTGPSSSGYFAGREWYYGNVTRHQ stands 1.73. Turning to YTGPSSSGAFAGREWYYGNVTRHQ, the protein stability index came out at 1.56.

Turning to YTGPSSSGNFAGREWYYGNVTRHQ, the protein stability index was determined as 1.69.

For the variant YTGPSSSGQFAGREWYYGNVTRHQ, the protein stability index is 1.81. Under YTGPSSSGEFAGREWYYGNVTRHQ stands 2.5. Under YTGPSSSGFFAGREWYYGNVTRHQ stands 4.5.

Turning to YTGPSSSGMFAGREWYYGNVTRHQ, the protein stability index was 3.36.

On to YTGPSSSGKFAGREWYYGNVTRHQ, for which the protein stability index amounted to 1.46.

With YTGPSSSGTFAGREWYYGNVTRHQ, the protein stability index worked out at 1.44. Under YTGPSSSGVFAGREWYYGNVTRHQ stands 1.85; under YTGPSSSGSFAGREWYYGNVTRHQ, 1.38; under YTGPSSSGDFAGREWYYGNVTRHQ, 1.81. As for YTGPSSSGIFAGREWYYGNVTRHQ, the protein stability index came out at 3.13.

Turning to YTGPSSSGPFAGREWYYGNVTRHQ, the protein stability index is 2.14. YTGPSSSGGFAGREWYYGNVTRHQ: the protein stability index worked out at 2.17.

On to YTGPSSSGHFAGREWYYGNVTRHQ, for which the protein stability index was 1.45. On to YTGPSSSGRFAHREWYYGNVTRHQ, for which the protein stability index came to 2.26. Under YTGPSSSGRFALREWYYGNVTRHQ stands 2.25. With YTGPSSSGRFACREWYYGNVTRHQ, the protein stability index turned out to be 2.81.

With YTGPSSSGRFAQREWYYGNVTRHQ, the protein stability index stood at 2.09. The figure for YTGPSSSGRFAEREWYYGNVTRHQ is 1.49. As to YTGPSSSGRFATREWYYGNVTRHQ, the protein stability index worked out at 2.17. Under YTGPSSSGRFAFREWYYGNVTRHQ stands 2.45; under YTGPSSSGRFAAREWYYGNVTRHQ, 1.73. With YTGPSSSGRFAPREWYYGNVTRHQ, the protein stability index amounted to 1.42. The figure for YTGPSSSGRFAWREWYYGNVTRHQ is 1.9; for YTGPSSSGRFARREWYYGNVTRHQ it is 1.98; for YTGPSSSGRFASREWYYGNVTRHQ it is 1.52. In the case of YTGPSSSGRFANREWYYGNVTRHQ, the protein stability index came to 3.14. The figure for YTGPSSSGRFAIREWYYGNVTRHQ is 2.66; for YTGPSSSGRFAVREWYYGNVTRHQ it is 1.84; for YTGPSSSGRFAYREWYYGNVTRHQ it is 2.1.

For the variant YTGPSSSGRFAMREWYYGNVTRHQ, the protein stability index came out at 1.75.

Consider YTGPSSSGRFAKREWYYGNVTRHQ, for which the protein stability index was determined as 2.32. Consider YTGPSSSGRFADREWYYGNVTRHQ, for which the protein stability index turned out to be 2.44.

Consider YTWPSSSGRFAGREWYYGNVTRHQ, for which the protein stability index turned out to be 2.99. Under YTYPSSSGRFAGREWYYGNVTRHQ stands 2.13. Under YTGPSSSGREAGREWYYGNVTRHQ stands 2.95; under YTGPSSSGRIAGREWYYGNVTRHQ, 1.89; under YTGPSSSGRGAGREWYYGNVTRHQ, 2.35. Under YTGPSSSGRMAGREWYYGNVTRHQ stands 2.1; under YTGPSSSGRLAGREWYYGNVTRHQ, 1.44. In the case of YTGPSSSGRHAGREWYYGNVTRHQ, the protein stability index was found to be 2.

Consider YTGPSSSGRRAGREWYYGNVTRHQ, for which the protein stability index turned out to be 1.66.

For the variant YTGPSSSGRNAGREWYYGNVTRHQ, the protein stability index was 2.13.

As to YTGPSSSGRYAGREWYYGNVTRHQ, the protein stability index is 1.64. The figure for YTGPSSSGRTAGREWYYGNVTRHQ is 2.2; for YTGPSSSGRAAGREWYYGNVTRHQ it is 2.14.

As to YTGPSSSGRDAGREWYYGNVTRHQ, the protein stability index was 1.93. The figure for YTGPSSSGRQAGREWYYGNVTRHQ is 1.84.

In the case of YTGPSSSGRPAGREWYYGNVTRHQ, the protein stability index was 2.42.

With YTGPSSSGRCAGREWYYGNVTRHQ, the protein stability index amounted to 1.44. The figure for YTGPSSSGRVAGREWYYGNVTRHQ is 2.13; for YTGPSSSGRSAGREWYYGNVTRHQ it is 2.11; for YTGPSSSGRKAGREWYYGNVTRHQ it is 2.25.

On to YTGPSSSGRWAGREWYYGNVTRHQ, for which the protein stability index worked out at 3.07. The figure for YTGPTSSGRFAGREWYYGNVTRHQ is 1.86; for YTGPHSSGRFAGREWYYGNVTRHQ it is 1.92; for YTGPNSSGRFAGREWYYGNVTRHQ it is 1.95.

YTGPRSSGRFAGREWYYGNVTRHQ: the protein stability index was found to be 2.03. As to YTGPWSSGRFAGREWYYGNVTRHQ, the protein stability index came out at 3.56. The figure for YTGPASSGRFAGREWYYGNVTRHQ is 2.6; for YTGPMSSGRFAGREWYYGNVTRHQ it is 2.96. Under YTGPDSSGRFAGREWYYGNVTRHQ stands 1.96. Regarding YTGPVSSGRFAGREWYYGNVTRHQ, the protein stability index turned out to be 1.4. Take YTGPYSSGRFAGREWYYGNVTRHQ: the protein stability index was determined as 3.23. YTGPCSSGRFAGREWYYGNVTRHQ: the protein stability index worked out at 1.31. Regarding YTGPQSSGRFAGREWYYGNVTRHQ, the protein stability index stood at 1.97. For the variant YTGPFSSGRFAGREWYYGNVTRHQ, the protein stability index is 2.77.

With YTGPKSSGRFAGREWYYGNVTRHQ, the protein stability index was 1.7. YTGPESSGRFAGREWYYGNVTRHQ: the protein stability index came out at 1.62. The figure for YTGPGSSGRFAGREWYYGNVTRHQ is 2.46; for YTGPISSGRFAGREWYYGNVTRHQ it is 2.13.

Take YTGPLSSGRFAGREWYYGNVTRHQ: the protein stability index turned out to be 2.56. With YTGPSRSGRFAGREWYYGNVTRHQ, the protein stability index is 1.46. The figure for YTGPSLSGRFAGREWYYGNVTRHQ is 1.77.
